This note sets out measurements from article PMC5356828.

The target in experiment [1] is P-glycoprotein (human (endogenous in primary skin fibroblasts)) (UniProt P08183). Kind of experiment: co-IP; lysates of hypertrophic scar fibroblasts (HF) treated with latrunculin-A (0.2 μM) or DMSO for 12 h; IP with anti-P-glycoprotein or anti-MRP1 antibody, immunoblot for actin. In general terms: A western blot detects proteins with antibodies after separation by electrophoresis.

In experiment [2] the target is multidrug resistance-associated protein 1 (human (endogenous in primary skin fibroblasts)) (UniProt P33527). The description is as above.

“actin (from UniProt P60709 1-375) (natural protein)”: the percent loss of the co-precipitate after latrunculin-A in experiment [1] worked out at 90%; in experiment [2] it was 70%.
